Assay results from the supplement of paper PMC10567573.

B1: ZNF649 (parent)
chain: MTKAQESLTLEDVAVDFTWEEWQF
B2: LOXL2 (parent)
chain: YVEVKEGKTWKQICDKHWTAKNSR

Variants of: B1
Assay: protein stability index of a GFP-peptide fusion (GPS, HEK-293T) (PSI 1-6); higher = more stable
Conditions: c terminus: a fixed tail appended
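Further: lentivirally expressed fusions sorted by FACS into six bins by GFP to DsRed ratio, PSI derived from sequencing read proportions per bin multiplied by bin number.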

Protein stability index: each site, then its substitutions
E21: P 1.89, D 3.36, T 2.21, G 1.49, R 3.17, L 1.23, F 3.42, A 2.12, Q 3.08, S 2.11, H 1.53, C 1.58, M 2.25, W 2.72, V 2.81, Y 1.95, K 1.95, N 1.54
W19: G 4.61, S 4.29, A 4.51, Y 3.61, I 2.56, V 3.68, P 4.43, M 3.77, Q 4.43, T 4.07, F 3.19, E 4.66, L 3, N 4.37, D 4.65, C 3.85, K 3.58, H 3.6, R 4.07
T18: K 2.48, N 3.47, L 2.26, Y 1.36, C 2.64, F 1.79, G 3.37, Q 2.75, M 2.39, D 4.1, A 3.87, S 3.15, R 2.17, E 3.32, I 2.41, W 1.51, V 1.95, H 2.63, P 3.16
E20: S 2.65, Y 2, I 1.87, W 2.28, G 2.17, T 2.5, R 2.06, Q 2.32, C 2.48, F 1.44, A 2.48, M 2.57, K 2.51, L 1.3, H 2.22, D 3.14, V 3.37, P 2.76, N 2.41
F24: E 5.32, R 4.34, L 3.83, Y 3.4, N 4.35, D 4.57, I 2.51, H 4.01, P 3.9, W 2.88, T 3.94, C 3.99, M 4.49, S 3.9, V 3.77, A 4.61, K 4.87, G 4.45
D16: Y 2.64, M 2.34, T 3.32, R 2.22, V 2.29, E 1.85, S 3.12, C 2.89, A 3.34, I 2.52, H 3.23, L 2.73, K 2.5, P 4.02, Q 2.92, N 3.77, G 3.13, F 2.94
W22: Q 4.16, P 4.4, L 3.62, M 3.72, G 4.33, S 4.78, F 3.41, Y 3.44, D 4.64, H 4.13, A 4.17, T 4.28, V 3.96, C 3.12, R 3.69, N 4.27, K 4.76, E 4.52, I 3.54
Q23: M 2.72, R 3.56, T 3.1, S 3.06, N 2.74, G 2.87, I 1.97, H 2.02, L 2.05, D 3.51, V 2.08, F 2.66, A 4.2, P 3.22, C 2.26, Y 2.38, K 3.28, E 3.46
F17: A 4.42, L 4.03, D 4.75, N 3.64, P 4.43, W 3.31, Q 4.51, V 4.05, T 3.95, K 4.72, M 4.17, S 4.52, G 3.81, R 3.61, H 3.94, I 4.25, Y 3.76, E 5.01, C 4.1

Variants of: B2
Assay: as above
Conditions: c terminus: a fixed tail appended

Protein stability index: each site, then its substitutions
E3: N 2.29, Y 2.73, R 1.88, W 2.6, A 4.18, C 1.44, H 2.92, D 2.63, F 2.52, K 2.68, L 2.58, G 3.63, T 3.63, M 1.06, V 1.56, S 3.96, Q 1.95, I 2.53
K5: P 1.7, N 1.86, G 2.46, T 2.35, L 2.65, Q 3.01, W 2.87, A 3.18, M 2.33, C 1.65, S 1.46, Y 1.78, E 1.7, I 2.46, H 1.85, D 2.54, R 3.94, V 2.63
T9: H 1.86, F 4.42, D 1.6, M 2.92, S 2.56, K 2.43, N 1.99, Y 2.33, C 4.04, G 2.11, R 2.55, V 1.94, L 2.52, E 1.61, W 3.01, I 2.48, P 2
E6: I 1.47, W 2.16, V 3.77, P 2.18, S 1.99, G 3.33, C 3.35, M 2.88, R 1.84, Y 2.65, A 2.14, L 2.79, F 2.49, D 2.9, N 2.44, H 2.64, Q 4.18, K 2.89, T 2.77
Y1: K 3.84, D 3.52, F 3.57, S 3.71, N 3.93, A 3.4, E 3.46, W 2.29, V 3.4, I 2.68, T 3.21, L 3.34, Q 3.58, C 3.36, G 3.72, R 3.12, H 3.14, P 3.68, M 3.49
W10: D 3.03, A 2.42, C 2.17, E 2.99
G7: N 2.64, C 2.29, M 1.72, I 1.85, P 1.96, S 1.86, L 1.95, F 1.65, V 2.8, D 1.6, Q 2.42, W 2.52, H 1.62, K 1.91, A 1.61, R 1.62, Y 2.18, T 1.24, E 1.7
K8: G 1.85, H 1.44, P 2.63, D 2.41, C 2.17, R 2.24, I 2.67, N 1.68, V 2.07, T 1.55, S 2.44, A 2.49, L 2.01, F 2.42, Y 2.21, E 2.46, M 1.91, Q 3.07
V2: W 1.98, G 1.98, N 3.69, D 3.58, H 1.55, S 2.86, C 2.09, M 2.96, K 3, Q 2.16, I 2.66, A 1.78, E 3.7, F 2.21, T 2.22, P 2.12, R 3.03, L 2.72, Y 2.8
V4: G 2.86, L 3.89, C 2.22, A 2.73, M 1.82, S 2.73, Q 1.51, H 1.74, Y 1.14, I 2.55, W 1.39, F 2.36, R 2.1, P 1.26, E 1.42, K 2.03
